From article PMC4122979 (Bioscience Reports, 2014)

Biological target: Human CaM (calmodulin) (human, UniProt P0DP23 1-149)
Test: cell-based or functional assay

| Binder | inhibition of eNOS L-citrulline formation (100 nM eNOS, 0.5 uM CaM) by 10 uM peptide [%] |
| --- | --- |
| TRKKTFKEVANAVKISASLM [Unmodified CBD peptide, T495 (heNOS CaM-binding domain, residues 491-510)] | 87 |
| TRKKAFKEVANAVKISASLM [Phospho-null CBD peptide, A495 (heNOS residues 491-510)] | 70 |
| TRKKDFKEVANAVKISASLM [Phosphomimetic CBD peptide, D495 (heNOS residues 491-510)] | 20 |
